Experimental data reported in patent US20070202051A1, “Aerosols for sinunasal drug delivery” (Pari GmbH, priority 2006, published 2007).

Legend:
[1] = at 25° C.; cited from earlier work
[2] = Physicochemical properties of the liquid test formulations
[3] = Aerosol droplet size (mass median diameter, geometric standard deviation) by laser diffraction; type: physicochemical; settings: aerosol generator of Example 5 (LC Sprint Junior-like + PARI SINUS); Example 9

| Compound | aqueous solubility [1] | dynamic viscosity of the solution [2] | osmolality of the solution [2] | pH of the solution [2] | surface tension of the solution [2] | mass median diameter of the aerosol [3] |
| --- | --- | --- | --- | --- | --- | --- |
| OC[C@H]1O[C@@H]2O[C@H]3[C@H](O)[C@@H](O)[C@@H](O[C@H]4[C@H](O)[C@@H](O)[C@@H](O[C@H]5[C@H](O)[C@@H](O)[C@@H](O[C@H]6[C@H](O)[C@@H](O)[C@@H](O[C@H]7[C@H](O)[C@@H](O)[C@@H](O[C@H]1[C@H](O)[C@H]2O)O[C@@H]7CO)O[C@@H]6CO)O[C@@H]5CO)O[C@@H]4CO)O[C@@H]3CO [α-cyclodextrin] | about 145 mg/mL | – | – | – | – | – |
| DNAse | – | 0.98 mPa·s | 285 mOsm/kg | 6.5 | 72.1 mN/m | 3.19 µm |
